This is an account of results in paper PMC5344419, “The structure of FKBP38 in complex with the MEEVD tetratricopeptide binding-motif of Hsp90” (PLoS ONE, 2017).

B1: Yeast C-terminal fragment of Hsp90 (yHsp90^546-709) (domain or fragment)
chain: not shown
notes: Expressed from pRSETA as a His-tagged fusion; also called C-terminal domain of yeast Hsp90
B2: Hsp90α^464-732, C-terminal domain of human Hsp90α (domain or fragment)
chain: not shown
notes: Hsp90α, human, residues 464-732 (C-terminal domain); Expressed from p2E as a PreScission cleavable His-tagged fusion; also called C-terminal domain of Hsp90α
B3: Hsp90β EDASRMEEVD C-terminal peptide (peptide)
peptide: EDASRMEEVD
notes: the terminal ten amino-acid residues of Hsp90β
B4: FKBP38 isoform (FKBP^92-380), immunophilin and TPR domain (domain or fragment, UniProt Q14318 92-380, looked up)
chain: EWLDILGNGLLRKKTLVPGPPGSSRPVKGQVVTVHLQTSLENGTRVQEEPELVFTLGDCDVIQALDLSVPLMDVGETAMVTADSKYCYGPQGRSPYIPPHAALCLEVTLKTAVDGPDLEMLTGQERVALANRKRECGNAHYQRADFVLAANSYDLAIKAITSSAKVDMTFEEEAQLLQLKVKCLNNLAASQLKLDHYRAALRSCSLVLEHQPDNIKALFRKGKVLAQQGEYSEAIPILRAALKLEPSNKTIHAELSKLVKKHAAQRSTETALYRKMLGNPSRLPAKCPG
notes: FKBP8, fragment 92-380 containing both the immunophilin (PPIase) and TPR domain; numbers count on full-length FKBP8; also called FKBP8^92-380; not shown: His6 (from the vector pDMXV4), C-terminal, kept
B5: FKBP8 (FKBP^1-380), amino acids 1-380, lacking the C-terminal trans-membrane helix (domain or fragment, UniProt Q14318 1-380, looked up)
chain: MASCAEPSEPSAPLPAGVPPLEDFEVLDGVEDAEGEEEEEEEEEEEDDLSELPPLEDMGQPPAEEAEQPGALAREFLAAMEPEPAPAPAPEEWLDILGNGLLRKKTLVPGPPGSSRPVKGQVVTVHLQTSLENGTRVQEEPELVFTLGDCDVIQALDLSVPLMDVGETAMVTADSKYCYGPQGRSPYIPPHAALCLEVTLKTAVDGPDLEMLTGQERVALANRKRECGNAHYQRADFVLAANSYDLAIKAITSSAKVDMTFEEEAQLLQLKVKCLNNLAASQLKLDHYRAALRSCSLVLEHQPDNIKALFRKGKVLAQQGEYSEAIPILRAALKLEPSNKTIHAELSKLVKKHAAQRSTETALYRKMLGNPSRLPAKCPG
notes: FKBP8, amino acids 1-380, lacking the C-terminal trans-membrane helix; numbers count on full-length FKBP8 (Arg 184 is Arg 127 in FKBP38 numbering); Non-cleavable C-terminal His6 tag from pDMXV4; also called FKBP8 isoform; not shown: His6, C-terminal, kept

Conditions in all cases: both partners purified
The target of experiment [1] is B5. Put plainly: ITC; 700 to 800 μM FKBP construct injected into 50 μM Hsp90 or Hsp70 protein in the cell; ITC200; 20 mM Tris, 300 mM NaCl, 1 mM EDTA pH 7.5. For orientation: In ITC the heat of successive injections is recorded.
Experiment [2] deals with B5. Put plainly: ITC; 2 mM peptide injected into 50 μM FKBP^1-380 in the cell; ITC200; 20 mM Tris, 300 mM NaCl, 1 mM EDTA pH 7.5.
Another experiment has as its target T1, Full-length human Hsp90β (human, UniProt P08238 1-724).
T1 construct: Hsp90β, human, full length; Expressed from pRSETA as a His-tagged fusion; also called intact Hsp90β
Put plainly: ITC; 700 to 800 μM FKBP construct injected into 50 μM Hsp90 or Hsp70 protein in the cell; ITC200; 20 mM Tris, 300 mM NaCl, 1 mM EDTA pH 7.5.

The target of experiment [3] is T2, Hsp90β^295-724, middle and C-terminal domain fragment of human Hsp90β (human, UniProt P08238 295-724).
T2 construct: Hsp90β, human, residues 295-724 (middle and C-terminal domain, with the MEEVD motif); Expressed from pRSETA as a His-tagged fusion; also called Hsp90^295-724
Described as above.

T1 sequence (P08238 whole entry, the tested form may be a part): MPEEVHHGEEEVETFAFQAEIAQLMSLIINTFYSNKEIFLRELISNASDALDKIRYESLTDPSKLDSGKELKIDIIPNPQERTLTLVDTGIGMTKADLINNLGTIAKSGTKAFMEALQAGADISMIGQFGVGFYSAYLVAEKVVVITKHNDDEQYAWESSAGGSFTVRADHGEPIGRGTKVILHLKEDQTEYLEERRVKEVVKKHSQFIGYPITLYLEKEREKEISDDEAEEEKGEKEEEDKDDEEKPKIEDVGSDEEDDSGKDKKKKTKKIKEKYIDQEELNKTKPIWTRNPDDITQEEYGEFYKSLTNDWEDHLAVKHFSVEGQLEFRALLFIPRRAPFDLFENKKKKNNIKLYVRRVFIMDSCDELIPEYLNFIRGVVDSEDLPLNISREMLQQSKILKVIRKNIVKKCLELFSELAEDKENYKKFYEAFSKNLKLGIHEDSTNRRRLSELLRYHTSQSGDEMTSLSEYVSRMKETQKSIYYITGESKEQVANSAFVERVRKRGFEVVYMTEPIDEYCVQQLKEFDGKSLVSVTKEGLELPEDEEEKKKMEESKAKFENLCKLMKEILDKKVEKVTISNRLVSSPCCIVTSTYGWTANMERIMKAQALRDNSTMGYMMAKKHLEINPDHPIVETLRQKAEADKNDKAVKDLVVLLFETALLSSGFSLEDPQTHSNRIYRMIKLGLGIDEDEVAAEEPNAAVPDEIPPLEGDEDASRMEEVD
T2 sequence (P08238 295-724): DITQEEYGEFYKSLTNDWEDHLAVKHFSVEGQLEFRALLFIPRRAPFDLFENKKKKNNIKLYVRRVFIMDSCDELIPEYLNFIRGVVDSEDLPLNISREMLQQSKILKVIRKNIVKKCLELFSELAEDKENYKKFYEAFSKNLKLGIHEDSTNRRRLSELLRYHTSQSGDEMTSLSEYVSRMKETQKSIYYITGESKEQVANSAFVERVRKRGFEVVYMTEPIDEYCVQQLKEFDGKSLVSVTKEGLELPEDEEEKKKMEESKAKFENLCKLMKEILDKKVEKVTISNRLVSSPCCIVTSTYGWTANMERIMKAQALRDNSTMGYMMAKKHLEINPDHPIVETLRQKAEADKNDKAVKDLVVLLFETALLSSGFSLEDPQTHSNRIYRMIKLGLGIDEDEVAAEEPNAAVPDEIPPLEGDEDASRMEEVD

The term Kd denotes a measure of binding affinity in units of concentration. B1 showed a Kd in experiment [1] of 2.3 ± 0.2 µM. Still for that read-out and setting: the same measure for B2: 8.3 ± 0.6 µM.

As to B3, the Kd in experiment [2] stood at 64.5 ± 3.7 µM. The term stoichiometry N denotes a count of units in the complex or per binding partner. For B4, in the experiment with Full-length human Hsp90β, the Kd turned out to be 2.6 ± 0.2 µM and the “stoichiometry N” value was determined as 1. In turn, B5 showed a Kd in experiment [3] of 6.4 ± 0.5 µM. Besides, in the experiment with Full-length human Hsp90β, the Kd stood at 2.8 ± 0.1 µM and the “stoichiometry N” value turned out to be 1. GSGPTIEEVD (C-terminal peptide of human Hsp70) [Human Hsp70 GSGPTIEEVD C-terminal peptide] displayed a dissociation constant Kd in experiment [2] of 147 µM.
